In the assay the target is Flag-NLS-Actin wt. Description: proximity ligation.

These results are taken from PMC7612964.

On to “endogenous BRM (from UniProt P51531 1-1590) (natural protein)”, for which the % PLA-positive cells (spread cells, high mechanical inputs) is 94.7%.
